Molecular target: recombinant human prolidase with N-terminal His-Tag (human) (UniProt P12955)
Test: SEC; Superdex 200 gel filtration in 150 mM NaCl, 25 mM Tris-HCl pH 7.5, 1 mM TCEP-HCl; mass by a commercial standard (Bio-Rad)

Substance: recombinant human prolidase with N-terminal His-Tag (from UniProt P12955 1-493) (enzyme)
- stoichiometry N: 2
